Usually Km stands for the concentration of substrate that gives half-maximal velocity.

Among the data in patent publication US20250357519A1, “APPLICATIONS OF O2-INSENSITIVE FORMATE DEHYDROGENASE” (UNIVERSITY OF MARYLAND, BALTIMORE, priority 2022, published 2025) are Km values, retold here.

Substrate in this series: O=CO
Briefly: purified protein, by the assay type.

B1: Desulfovibrio vulgaris Hildenborough (DvH) FDH2, recombinant Strep-tag II-tagged (FDH2^Rec), large subunit DVU2482 SEQ ID NO: 31, small subunit DVU2481 SEQ ID … (protein)
chain: AELKIAKAKVTPSVCCFCAVGCGLLVYTDTQTGRSINIEGDPDHPTNEGTLCPKGASIWQTTERSKRVTKVLYRAPGAAAWEEKSWDWALPRIARKIKETRDATFELTNDKGQTVNRTRGIASVGSAAVDNEEGWLMQAMMRALGLVYIESHARIUHSSTVGALAESYGRGAMTNHWIDLKNSDVILIMGSNAAENHPISFKWVTRAQERGATLIHVDPRFTRTSAKADIHAHIRSGTDIAFFGGLIRYIMENDLFFRQYVVDYTNASYIVGADYGFADGLFTGFDAEKGTYNTKKWAFAADENGMTLKDPTLNDPRCVFQLMKAHYARYDRKTVSDVTGISEEQLATLWSTFASTGKPDRAGTILYAMGQCQHTVGVQNIRALSMIQLLLGNIGIAGGGVNALRGESNVQGTTDISLLCDNLSGYLPTPKASWATFDDYVKGTTPVDKDPKSANWWSNRGKYLASYMKSVYPTASHQDGYLWHPKVDDGKITDYSWLQIFERMSKGGFKGAFVWGQNPCAGGANAGKNRKAMETLDWMVVVNLFENESSLFWKGPGVDPAKVKTEVFFLPACMSVEKGGSIANSGRWLQWREPGPKPMGDSRSDGDIVLDLYDEIRKLYREEKGAFPEPVLALDTDYRTDGKYDHHKVAKTLNGKFLTDVTIGDKTYKAGQQVPGFAMLQADGSTTSGCWIFTGCYTDAGNMMARRDRTQTPEQAAIGLFPNWSYAWPANRRILYNRAAVDMTGKPFDPKRAVIAWNGEKWVGDVPDGGWKPGEKLPFIMIREGRGQLFGPGRVDGPFPEHYEPFESPLESHPFSKQRVNPTALAFSHEPKAVRDKRYPFICTTYRVTEQWQSGTMTRNTGWLKEMQPEGFCEISRELAKELGIANGDAVVLESLRGKVQVVAIVTPRLKPFKVMGEVMHEVGIPWQFGWGQHVGKGDSANLLSPSVGDPNTGIPETKVFMVNLRKA
Turning to B1, the Km by setting is: (other: 2 mM BV (anaerobic), full progress curve, calculated from kcat and kcat/Km, pH 8.0, 25.0 °C) 2.1 ± 0.1 µM; (other: BV (2 mM), anaerobic, initial velocities, 3 replicates, pH 8.0, 25 °C) 3.5 ± 0.9 µM; (other: BV (20 mM), anaerobic, initial velocities, 3 replicates, pH 8.0, 25 °C) 7 ± 3 µM; (other: DCPIP (air), full progress curve, calculated from kcat and kcat/Km, pH 8.0) 4.5 ± 0.4 µM; (other: DCPIP (anaerobic), full progress curve, calculated from kcat and kcat/Km, pH 8.0) 3.7 ± 0.3 µM; (other: PES/DCPIP, air, initial velocities, 10 replicates, pH 8.0) 7 ± 1 µM. Besides, for the setting “other: PES/DCPIP, anaerobic, initial velocities, 5 replicates, pH 8.0”, the Km came out at 5.5 ± 0.5 µM.
